Test results as given in the supplement of paper PMC7877785.
± gives the uncertainty stated by the source.

Assay: self-splicing fitness, log relative to wild type (ln ratio); higher = more splicing; Tetrahymena group I intron in knt gene, E. coli kanamycin selection, DiMSum; sequences stand for … in CUCUCU…GGAGGGAAAAGUUAUCAGGCAUGCACCUGGUAGCUAGUCUUUAAACCAAUAGAUUGCAUCGGUUUAAAAGGCAAGACCGUCAAAUUGCGGGAAAGGGGUCAACAGCCGUUCAGUACCAAGUCUCAGGGGAAACUUUGAGAUGGCCUUGCAAAGGGUAUGGUAAUAAGCUGACGGACAUGGUCCUAACCACGCAGCCAAGUCCUAAGUCAACAGAUCUUCUGUUGAUAUGGAUGCAGUUCACAGACUAAAUGUCGGUCGGGGAAGAUGUAUUCUUCUCAUAAGAUAUAGUCGGACCUCUCCUUAAUGGGAGCUAGCGGAUGAAGUGAUGCAACACUGGAGCCGCUGGGAACUAAUUUGUAUGCGAAAGUAUAUUGAUUAGUUUUGGAGUACUCGUGGUCG
In short: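 Pooled colonies went to amplicon sequencing on an Illumina HiSeq 2500 after six replicate transformations. The plates were LB agar with 100 μg/mL carbenicillin, 50 μM IPTG and 0.2% rhamnose, with or without 25 μg/mL kanamycin, incubated overnight at 37°C or 30°C. The E. coli BL21(DE3) library had all eight P1ex-region intron nucleotides randomised, the intron placed in the knt kanamycin-resistance gene on pET-22b(+). DiMSum fitness is the error-weighted combination of replicate fold changes, kanamycin against none, normalised to wild type.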

Sequence	self-splicing fitness (ln) (30 °C)	self-splicing fitness (ln) (37 °C)
AAGUAGCAAUAUUACGUGUC	-2.83 ± 0.27	-2.4 ± 0.28
AAUAAGCAAUAUUACGAAUG	-1.37 ± 0.13	-0.759 ± 0.17
AAUAAGCAAUAUUACGACCG	-0.621 ± 0.12	0.329 ± 0.16
AAUAAGCAAUAUUACGAGAG	-2.47 ± 0.14	-2.01 ± 0.2
AAUAAGCAAUAUUACGAGGC		-2.31 ± 0.32
AAUAAGCAAUAUUACGAUGC	-2.4 ± 0.13	-1.45 ± 0.15
AAUAAGCAAUAUUACGAUUC	-2.44 ± 0.12	-1.13 ± 0.15
AAUAAGCAAUAUUACGCAAU	-1.59 ± 0.075	-1.22 ± 0.082
AAUAAGCAAUAUUACGCAUA	-1.59 ± 0.16	-0.617 ± 0.16
AAUAAGCAAUAUUACGCCCA	0.0107 ± 0.1	-0.447 ± 0.15
AAUAAGCAAUAUUACGCUCC	-1.46 ± 0.23	-0.799 ± 0.24
AAUAAGCAAUAUUACGGAAA	-1.5 ± 0.33	-2.03 ± 0.39
AAUAAGCAAUAUUACGGAGU	-3.06 ± 0.25	-2.13 ± 0.32
AAUAAGCAAUAUUACGGGCG	-1.29 ± 0.086	-0.752 ± 0.095
AAUAAGCAAUAUUACGGUAA	-1.73 ± 0.16	-1.03 ± 0.11
AAUAAGCAAUAUUACGUACU	0.573 ± 0.1	-0.654 ± 0.095
AAUAAGCAAUAUUACGUAUU	-3.58 ± 0.17	-2.22 ± 0.15
AAUAAGCAAUAUUACGUCCA	-0.808 ± 0.13	-0.899 ± 0.19
AAUAAGCAAUAUUACGUCCG	-1.15 ± 0.11	-0.82 ± 0.15
AAUAAGCAAUAUUACGUGCC		0.782 ± 0.26
AAUAAGCAAUAUUACGUGCG	-1.1 ± 0.065	-0.488 ± 0.083
AAUAAGCAAUAUUACGUGUU	-3.01 ± 0.097	-2.58 ± 0.13
AAUCAGCAAUAUUACGACAG	-1.31 ± 0.083	-0.761 ± 0.1
AAUCAGCAAUAUUACGACGA	-0.461 ± 0.082	0.386 ± 0.1
AAUCAGCAAUAUUACGAGAA	-1.61 ± 0.26	-1.61 ± 0.2
AAUCAGCAAUAUUACGAUCC	0.138 ± 0.13	-0.291 ± 0.17

Sequence	self-splicing fitness (ln) (30 °C)	self-splicing fitness (ln) (37 °C)
AAUCAGCAAUAUUACGAUGA	0.103 ± 0.059	0.0645 ± 0.083
AAUCAGCAAUAUUACGCCAU	-2.35 ± 0.19	-1.76 ± 0.14
AAUCAGCAAUAUUACGCCGA	-1.17 ± 0.09	-0.332 ± 0.11
AAUCAGCAAUAUUACGCGUU	-0.956 ± 0.057	-0.765 ± 0.076
AAUCAGCAAUAUUACGGAAA	-1.19 ± 0.099	0.0734 ± 0.12
AAUCAGCAAUAUUACGGAUU	-2.89 ± 0.15	-2.74 ± 0.16
AAUCAGCAAUAUUACGGCGU	0.47 ± 0.068	0.7 ± 0.076
AAUCAGCAAUAUUACGGGGA	-1.82 ± 0.1	-0.723 ± 0.1
AAUCAGCAAUAUUACGGGGG	-1.11 ± 0.1	-1.66 ± 0.13
AAUCAGCAAUAUUACGGUAA	0.0235 ± 0.065	0.0455 ± 0.063
AAUCAGCAAUAUUACGGUAG	-1.83 ± 0.092	-0.774 ± 0.097
AAUCAGCAAUAUUACGUCAU	0.166 ± 0.064	0.337 ± 0.077
AAUCAGCAAUAUUACGUCCU	0.497 ± 0.09	0.632 ± 0.11
AAUCAGCAAUAUUACGUUCC	-2.26 ± 0.24	-0.62 ± 0.22
AAUGAGCAAUAUUACGAUAG	-3.68 ± 0.27	-2.04 ± 0.34
AAUGAGCAAUAUUACGAUAU	-3.25 ± 0.25	-0.861 ± 0.22
AAUGAGCAAUAUUACGCACG	-3.21 ± 0.36	
AAUGAGCAAUAUUACGCUAC	-3.12 ± 0.27	-2.84 ± 0.34
AAUGAGCAAUAUUACGGAAG	-3.49 ± 0.3	-2.63 ± 0.23
AAUGAGCAAUAUUACGGACU	-1.59 ± 0.13	-2.04 ± 0.19
AAUGAGCAAUAUUACGGAGA	-2.59 ± 0.4	-2.51 ± 0.34
AAUGAGCAAUAUUACGGAGG	-2.69 ± 0.33	-2.45 ± 0.38
AAUGAGCAAUAUUACGGCUA	-2.14 ± 0.24	-0.372 ± 0.16
AAUGAGCAAUAUUACGGCUG	-1.52 ± 0.096	-1.47 ± 0.16
AAUGAGCAAUAUUACGGGCA	-3.76 ± 0.42	-1.24 ± 0.29
AAUGAGCAAUAUUACGGGGU	-2.97 ± 0.18	-2.29 ± 0.21

Sequence	self-splicing fitness (ln) (30 °C)	self-splicing fitness (ln) (37 °C)
AAUGAGCAAUAUUACGUAGA	-2.46 ± 0.24	-2.56 ± 0.27
AAUGAGCAAUAUUACGUAGG	-3.19 ± 0.15	-2.6 ± 0.24
AAUGAGCAAUAUUACGUCGA	-3.56 ± 0.21	-2.84 ± 0.23
AAUGAGCAAUAUUACGUUUG	-4.24 ± 0.2	-2.33 ± 0.19
AAUUAGCAAUAUUACGAACG	-0.548 ± 0.13	-0.153 ± 0.19
AAUUAGCAAUAUUACGACAU	-0.0913 ± 0.013	-0.0165 ± 0.033
AAUUAGCAAUAUUACGACUG	-1.11 ± 0.1	-0.677 ± 0.11
AAUUAGCAAUAUUACGAGAC		-2.39 ± 0.39
AAUUAGCAAUAUUACGAUUA	-0.375 ± 0.15	-0.559 ± 0.15
AAUUAGCAAUAUUACGCAUG	-1.7 ± 0.15	0.109 ± 0.2
AAUUAGCAAUAUUACGCAUU	-2.52 ± 0.17	-2.69 ± 0.21
AAUUAGCAAUAUUACGCCGC	-2.94 ± 0.36	-1.66 ± 0.24
AAUUAGCAAUAUUACGCGAG	-1.84 ± 0.12	-0.918 ± 0.12
AAUUAGCAAUAUUACGCGGA	-1.56 ± 0.16	-1.3 ± 0.12
AAUUAGCAAUAUUACGCGGG	-2.73 ± 0.15	-0.941 ± 0.14
AAUUAGCAAUAUUACGGAUC	-0.415 ± 0.11	0.186 ± 0.12
AAUUAGCAAUAUUACGGUCU	-0.43 ± 0.085	0.202 ± 0.099
AAUUAGCAAUAUUACGUAAU	-1.92 ± 0.12	-0.218 ± 0.15
AAUUAGCAAUAUUACGUAGU	-2.9 ± 0.16	-0.462 ± 0.1
AAUUAGCAAUAUUACGUCAC	-3.93 ± 0.36	-2.41 ± 0.33
AAUUAGCAAUAUUACGUCCU	-0.344 ± 0.11	0.561 ± 0.16
AAUUAGCAAUAUUACGUUAG	-4.03 ± 0.28	-3.13 ± 0.26
AAUUAGCAAUAUUACGUUUU	-1.98 ± 0.13	-1.21 ± 0.14
ACAAAGCAAUAUUACGAACU	-0.4 ± 0.055	0.248 ± 0.075
ACAAAGCAAUAUUACGACGU	0.0672 ± 0.047	0.266 ± 0.06
